According to publication PMC12700104:

Molecular target: YxiD^CTD (C-terminal domain of YxiD, Pro428-Pro534), Bacillus subtilis 6633 (Bacillus subtilis 6633 (Bacillus subtilis subsp. spizizenii ATCC 6633))
Test: ITC; 15 uM YxiD^CTD in the cell titrated with 150 uM YxxD in the syringe; 25°C; 20 mM HEPES pH 7.5, 150 mM NaCl; OneSite binding model

B1: YxxD immunity protein, Bacillus subtilis 6633 (natural protein)
chain: MSYNFIKSNKENDFYPVNQSEIEEVEKNLNLKLPSELVNFYLEVGYGFIKGSEFNTNRILDPYSVRDFRLRINDFEFYPDIEIYDEFENDKLIFFEGSESALMSIELNDNNKNPIYYYDIQIATSLTEFLRKIEENDQYYLDLLDDE
In the case of B1, the Kd is reported as 9.4 nM, the dH is reported as -42.6 kJ/mol and the stoichiometry N is reported as 0.975 sites.
